In US20230295310A1 (ABCELLERA BIOLOGICS, published 2023):
Positions count from the first letter of the chain named.

B1: mAb 141 (antibody, V domains shown)
VH: QVQLVQSGAEVKKPGASVKVSCKASGYTFTSYYIHWVRQAPGQGLDWMGIINPSGGITGYAQKLQGRVTMTRDTSTTTVYMELSSLRSDDTAVYYCARGVRGNYYYYYMDVWGKGTTVTVSS
VL: EIVLTQSPDFQSVTPKEKVTITCRASQSIGSKLHWYQQKPDQSPKLLIKYASQSFSGVPSRFSGSGSGTDFNLTINSLEAEDAATFYCHQSSGLPYTFGQGTKLEIK
B2: mAb 145 (antibody, V domains shown)
VH: B1 VH with S31N, L64F
VL: B1 VL with Y50F, A80P
B3: mAb 287 (antibody, V domains shown)
VH: EVQLVESGGGVVRPGGSLRLSCAASGFTFDDYGMSWVRQAPGKGLEWVSGISWNGGSTGYADSVKGRFTISRDNAKNSLYLQMNSLRAEDTALYHCARDGVPVVKRRYYYYYMDVWGKGTTVTVSS
VL: B1 VL with K32S, N72T, F86Y, S92A, G93S, Y96Q, L104V
notes: VH/VL only
B4: mAb 290 (antibody, V domains shown)
VH: B3 VH
VL: B1 VL with V19I, K32S, N72T, F86Y, S92A, G93S, Y96Q, L104V
notes: VH/VL only
B5: mAb 286 (antibody, V domains shown)
VH: B3 VH with Q3K
VL: B1 VL with K32S, S65R, N72T, F86Y, S92G, G93S, Y96Q, L104V
notes: VH/VL only
B6: mAb 285 (antibody, V domains shown)
VH: EVQLLESGGGLGQPGGSLRLSCAASGFTFSNYAMSWVRQAPGKGLEWVSVISGSGGDKNYADSVKGRFTISRDNSKNTLYLQMNSLRAEDTAVYYCAKKYSYYYYYMDVWGKGTTVTVSS
VL: SYELTQPLSVSVALGQTARITCGGNNIGSKDVHWYQQKPGQAPVLVIYRDSNRPSGIPERFSGSNSGNTATLTISSAQAGDEADYYCQVWDSRTAVFGGGTQLTAL
notes: VH/VL only
B7: mAb 172 (antibody, V domains shown)
VH: EVQLVESGGGLVQPGRSLRLSCTTSGFTFDDYTMHWVRQVPGKGLEWVSDISWNSGSVGYADSVKGRFTISRDNAKNSLYLQMNSLRAEDTALYYCVKDSSGYGHYFHYYMDVWGKGTTVTVSS
VL: DIQMTQSPSSLSASVGDRVTITCRASQSISNYLNWYQVKPGKAPKVLIYAASSLQSGVPSRFSGSGSGTDFTLTISSLQPEDFVSYYCHQSYNAPITFGQGTRLESK
notes: VH/VL only
B8: mAb 173 (antibody, V domains shown)
VH: B7 VH with T23A, T24A
VL: B7 VL with A94T, S106I
notes: VH/VL only
B9: mAb 273 (antibody, V domains shown)
VH: EVQLVESGGGLVQPGESLKLSCTASGFTFSVSAIHWVRQASGKGLEWVGRIRSKANSYATAYVASVKGRFTLSRDDSKNTAYLQMNSLKTEDTAVYYCSSYYFVSGTYYNHWGQGTLVTVSS
VL: DIQMTQSPSSLSASVGDRVTITCRASQGIRYDLGWYQQKPGRAPKRLIHSVSSLQSGVPSRFSGSGSGTEFTLTISSLQPEDFATYYCLQHNVNPCTFGQGTKLEIK
notes: VH/VL only
B10: mAb 174 (antibody, V domains shown)
VH: EVQLVESGGGLVQPGGSLRLSCAASGFTFSSNWMSWVRQAPGKGLEWVANIKQDGSEKYSVDSVKGRFTISRDNAKNSLYLQMNSLRAEDTAVYYCARDRSRNYYWYFDLWGRGTLVTVSS
VL: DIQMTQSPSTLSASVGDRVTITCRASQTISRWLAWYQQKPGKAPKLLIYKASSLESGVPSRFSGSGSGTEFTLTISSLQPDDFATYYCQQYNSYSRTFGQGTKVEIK
notes: VH/VL only
B11: mAb 175 (antibody, V domains shown)
VH: B10 VH with Q3E, S60Y, Q82K, R100C, R102S, Y104W
VL: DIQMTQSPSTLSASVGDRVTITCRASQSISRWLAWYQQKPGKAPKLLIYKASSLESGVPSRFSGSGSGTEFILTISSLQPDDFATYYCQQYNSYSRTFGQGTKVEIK
notes: VH/VL only
B12: mAb 188 (antibody, V domains shown)
VH: QVQLVESGGGVVQPGRSLRLSCAASGFTFSGYGMHWVRQAPGKGLEWVAIIYYNGKKEYYADSVKGRFTISRDNSKNTLYLQMNSLRAEDTAVYYCTRGEGYNWFDPWGQGTLVTVSS
VL: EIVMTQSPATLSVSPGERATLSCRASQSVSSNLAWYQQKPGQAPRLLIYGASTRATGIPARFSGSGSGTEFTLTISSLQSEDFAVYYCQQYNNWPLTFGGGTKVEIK
notes: VH/VL only
B13: mAb 197 (antibody, V domains shown)
VH: B12 VH with R16G, Y52W, K56R, E58T, D62E, Y80S, A88V, R98T, E100Q
VL: EIVMTQSPATLSVSPGERATLSCRASQSVSSNLAWYQQKPGQAPRLLIYGASTRATGIPARFSGSGSGTEFTLTISSLQSEDFAVYYCQQFNAWPLTFGGGTKMEIK
notes: VH/VL only
B14: mAb 199 (antibody, V domains shown)
VH: B12 VH with S71F, Q82H
VL: B13 VL with S31R, F91Y, A93N, M104V
notes: VH/VL only
B15: mAb 198 (antibody, V domains shown)
VH: B12 VH with R16G, Y52W, K56R, E58T, D62E, Y80S, A88I, R98T, E100Q
VL: B13 VL
notes: VH/VL only
B16: mAb 192 (antibody, V domains shown)
VH: B12 VH with T112I
VL: B13 VL with Q89K, F91Y, N92K, A93N, M104V
notes: VH/VL only
B17: mAb 189 (antibody, V domains shown)
VH: B12 VH with N54D, K57N, E58K, N77S, R87G, E89D, E100K
VL: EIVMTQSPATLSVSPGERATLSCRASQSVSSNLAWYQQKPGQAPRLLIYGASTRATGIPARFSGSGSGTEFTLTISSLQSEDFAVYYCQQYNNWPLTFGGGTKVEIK
notes: VH/VL only
B18: mAb 191 (antibody, V domains shown)
VH: B12 VH
VL: B13 VL with E70D, D82H, F91Y, N92T, A93N, M104V
notes: VH/VL only
B19: mAb 170 (antibody, V domains shown)
VH: EVQLVESGGGLVRPGRSLRLSCAASGFTFDDYTMHWVRQAPGKGLEWVSGISWNSGSIGYADSVKGRFTISRDNAKNSLYLQMNSLRAEDTALYYCSKDSSGYGYYLNYSLDVWGKGTTVTVSS
VL: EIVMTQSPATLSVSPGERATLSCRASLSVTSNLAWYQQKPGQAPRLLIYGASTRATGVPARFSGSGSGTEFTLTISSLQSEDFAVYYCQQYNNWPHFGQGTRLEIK
notes: VH/VL only

Target: T1, human CD3 expressed on cells (human, UniProt P07766 23-207; P04234 22-171; P09693 23-182)
T1 construct: whole, on cells; CD3 complex on Jurkat cells and on human primary T cells
T1 sequence (P07766 23-207, chain 1 of 3): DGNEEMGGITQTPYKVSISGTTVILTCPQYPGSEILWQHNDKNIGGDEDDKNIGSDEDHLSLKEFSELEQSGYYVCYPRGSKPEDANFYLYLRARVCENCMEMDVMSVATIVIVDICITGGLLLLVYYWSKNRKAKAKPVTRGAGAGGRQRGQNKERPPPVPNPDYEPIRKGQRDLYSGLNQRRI
T1 sequence (P04234 22-171, chain 2 of 3): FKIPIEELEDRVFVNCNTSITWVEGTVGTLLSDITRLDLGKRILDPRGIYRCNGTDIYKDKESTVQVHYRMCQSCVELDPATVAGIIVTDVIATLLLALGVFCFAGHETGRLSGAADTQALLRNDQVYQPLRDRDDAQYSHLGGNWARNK
T1 sequence (P09693 23-182, chain 3 of 3): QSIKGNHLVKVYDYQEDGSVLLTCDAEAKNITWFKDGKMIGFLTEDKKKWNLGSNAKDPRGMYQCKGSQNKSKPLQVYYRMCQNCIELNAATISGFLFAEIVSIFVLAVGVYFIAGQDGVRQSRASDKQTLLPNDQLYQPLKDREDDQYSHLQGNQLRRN
Assay: flow cytometry, 25 nM
Method in brief: (§1)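 Antibodies at 25 nM in PBS + 2% FBS were incubated with CD3-expressing cells for 30 min at 4 °C and read by flow cytometry. Median fluorescence intensity was normalized to isotype control as fold over isotype; ≥10 counted as binding.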

Row | Human primary T Cell Binding (FOI) | Jurkat Cell Binding (FOI) | Binder
1 | 310 | 183 | B1
2 | 217 | 191 | B2

Target: T2, human CD3 expressed on cells (Jurkat cells; human primary T cells) (human, UniProt P07766 23-207; P04234 22-171; P09693 23-182)
T2 construct: whole, on cells
T2 sequence (P07766 23-207, chain 1 of 3): as the sequence (P07766 23-207, chain 1 of 3) above
T2 sequence (P04234 22-171, chain 2 of 3): as the sequence (P04234 22-171, chain 2 of 3) above
T2 sequence (P09693 23-182, chain 3 of 3): as the sequence (P09693 23-182, chain 3 of 3) above
Assay: flow cytometry, 25 nM, Jurkat cells
Experimental: (§2) Purified antibodies were confirmed to bind CD3 expressed on cells using the CytoFLEX S or LX flow cytometers (Beckman Coulter). Antibodies were diluted to 25 nM in FACS buffer (PBS+2% FBS) and were incubated with CD3-expressing cells for 30 minutes at 4° C. […] The median fluorescence intensity of the binding signal for each antibody was normalized to the isotype control to obtain a fold over isotype value. An antibody with a fold over isotype (FOI) of ≥10 was considered to be positive for binding.

Row | Binding (FOI) | Binder
3 | 156 | B3
4 | 135 | B4
5 | 232 | B5
6 | 232 | B6
7 | 111 | B7
8 | 109 | B8
9 | 53.1 | B9
10 | 130 | B10
11 | 96.6 | B11
12 | 171 | B12
13 | 183 | B13
14 | 172 | B14
15 | 182 | B15
16 | 176 | B16
17 | 165 | B17
18 | 170 | B18
19 | 117 | B19

Target: T3, cynomolgus monkey CD3 expressed on cyno primary T cells (cynomolgus monkey, UniProt Q95LI5 22-198; Q95LI8 22-171; Q95LI7 23-181)
T3 construct: whole, on cells; CD3 complex on purified cynomolgus monkey CD3 pan T cells; also called cyno CD3
T3 sequence (Q95LI5 22-198, chain 1 of 3): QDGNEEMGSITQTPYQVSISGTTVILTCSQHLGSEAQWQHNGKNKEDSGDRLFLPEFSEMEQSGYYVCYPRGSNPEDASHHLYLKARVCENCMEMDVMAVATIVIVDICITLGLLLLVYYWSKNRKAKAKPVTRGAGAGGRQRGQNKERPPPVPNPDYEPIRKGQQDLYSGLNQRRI
T3 sequence (Q95LI8 22-171, chain 2 of 3): as the sequence (P04234 22-171, chain 2 of 3) above, with I5V, N15K, I20V, S32T, D33N, I34N, T64A, S74N, V83L, H141R counted along it
T3 sequence (Q95LI7 23-181, chain 3 of 3): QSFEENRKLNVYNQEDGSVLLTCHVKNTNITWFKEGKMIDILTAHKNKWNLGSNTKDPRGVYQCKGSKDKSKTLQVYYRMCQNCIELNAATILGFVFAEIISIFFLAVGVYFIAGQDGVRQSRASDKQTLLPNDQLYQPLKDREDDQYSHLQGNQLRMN
Assay: flow cytometry, cyno primary T cells
Method in brief: as §1

Row | Binder | binding result
20 | B3 | no binding (tested: FOI <10 (FOI >=10 = positive); 25 nM)
21 | B4 | no binding (tested: FOI <10 (FOI >=10 = positive); 25 nM)
22 | B5 | no binding (tested: FOI <10 (FOI >=10 = positive); 25 nM)
23 | B6 | no binding (tested: FOI <10 (FOI >=10 = positive); 25 nM)
24 | B10 | no binding (tested: FOI <10 (FOI >=10 = positive); 25 nM)
25 | B11 | no binding (tested: FOI <10 (FOI >=10 = positive); 25 nM)
26 | B12 | no binding (tested: FOI <10 (FOI >=10 = positive); 25 nM)
27 | B13 | no binding (tested: FOI <10 (FOI >=10 = positive); 25 nM)
28 | B14 | no binding (tested: FOI <10 (FOI >=10 = positive); 25 nM)
29 | B15 | no binding (tested: FOI <10 (FOI >=10 = positive); 25 nM)
30 | B16 | no binding (tested: FOI <10 (FOI >=10 = positive); 25 nM)
31 | B17 | no binding (tested: FOI <10 (FOI >=10 = positive); 25 nM)
32 | B18 | no binding (tested: FOI <10 (FOI >=10 = positive); 25 nM)
33 | B19 | no binding (tested: FOI <10 (FOI >=10 = positive); 25 nM)

Target: T4, cynomolgus monkey CD3 expressed on primary T cells (cynomolgus monkey, UniProt Q95LI5 22-198; Q95LI8 22-171; Q95LI7 23-181)
T4 construct: whole, on cells; CD3 complex on purified cynomolgus monkey T cells; also called cyno CD3
T4 sequence (Q95LI5 22-198, chain 1 of 3): as the sequence (Q95LI5 22-198, chain 1 of 3) above
T4 sequence (Q95LI8 22-171, chain 2 of 3): as the sequence (P04234 22-171, chain 2 of 3) above, with I5V, N15K, I20V, S32T, D33N, I34N, T64A, S74N, V83L, H141R counted along it
T4 sequence (Q95LI7 23-181, chain 3 of 3): as the sequence (Q95LI7 23-181, chain 3 of 3) above
Assay: flow cytometry, 25 nM, cyno primary T cells
Method in brief: as §1

Row | binding result | Binder
34 | no binding (tested: FOI >=10 = positive) | B1
35 | no binding (tested: FOI >=10 = positive) | B2

Target: T2, human CD3 expressed on cells (Jurkat …)
Assay: flow cytometry, 25 nM, human primary T cells
Experimental: as §2

Row | Binding (FOI) | Binder
36 | 107 | B3
37 | 99.8 | B4
38 | 185 | B5
39 | 229 | B6
40 | 167 | B7
41 | 169 | B8
42 | 24.2 | B9
43 | 231 | B10
44 | 118 | B11
45 | 216 | B12
46 | 260 | B13
47 | 225 | B14
48 | 231 | B15
49 | 223 | B16
50 | 184 | B17
51 | 212 | B18
52 | 120 | B19
